From publication PMC3593993

Target: constitutively active Go2α (Go2αQ205L), Gal4 DNA-binding domain fusion (pGBKT7-Go2αQ205L) (UniProt P18872)
Assay: two-hybrid

A fold of the interaction (α-galactosidase activity) against Go1αQ205L of 2.5 fold was found for “Girdin prey of the mating and α-galactosidase experiments (pACT2-Girdin) (from UniProt Q5SNZ0 1318-1873) (domain or fragment)” in this work.
